# Assays:
# [1] = Biodistribution in vivo and PET in healthy mice; details: for tissue uptake at 0.5 h / tissue uptake at 1 h / tissue uptake at 1.5 h: male, C57BL/6, mouse, in vivo, iv, 2 MBq, total radioactivity, Biodistribution, healthy male C57BL/6 mice, penile vein injection, gamma counter, mean of n = 3; for tissue uptake at 0.5 h: 30 min; for tissue uptake at 1 h: 60 min; for tissue uptake at 1.5 h: 90 min
# Experimental: All murine experiments were approved by the Animal Care and Use Committee of the University of Groningen under license protocol number 2114768-01-001. In vivo biodistribution was performed in male C57BL/6 mice (age 8 weeks, 25 g). Per tracer, the animals were divided in three groups based on the tracer distribution times (30 min, 60 min, and 90 min). […] Each experimental arm (i.e. time point) consisted of three animals. […] Tracer was administered at t = 0 via penile vein injection (2.0 ± 0.9 MBq in 100 µL 0.9% saline solution, Supplemental Table 2). After tracer administration, the animals were transferred to a Siemens Focus 220 microPET small animal scanner (Siemens, Munich, Germany) and scanned for the designated time, followed by a transmission scan of 10 min for attenuation correction. PET data were normalized and corrected for decay, after which the PET data were reconstructed using OSEM2D-Z1-SC-256. The PET data frames used for reconstruction were: 6 × 10 s, 4 × 30 s, 2 × 60 s, 120 s, 180 s, 4 × 300 s, 3 × 600 s, 1200 s or until the designated scan time was reached, taking into account a 10-min transmission scan following the emission scan. Next, animals were terminated, and organs harvested to assay biodistribution in a calibrated gamma counter (Wizard2, Perkin Elmer, Waltham, United States).
# [2] = Summary of tracer stability in vitro and in vivo; details: summary table, in vitro and in vivo
# Experimental: Stability of the tracers was determined in PBS and human plasma. In a typical experiment, 1 MBq of radioactivity (10–20 µL) was added to 250 µL of PBS or human plasma. Samples were heated to 37 °C on a shaker and sampled at fixed intervals. For samples containing human plasma, protein was precipitated using two volumes of cold MeCN. Precipitated samples were briefly centrifuged to pellet the insoluble fraction and supernatant was used for stability assessment. Supernatant (1 µL) was loaded on a TLC plate and imaged using BAS-IP MS 2025 E plates (Fujifilm, Tokyo, Japan) on an Amersham Typhoon Biomolecular Imager (GE Healthcare Bio-Sciences Corp, Chicago, United States) equipped with a phosphor imaging stage. [^18F]BODIPY-FL-vancomycin has an Rf of 0.68 (petroleum ether/MeOH 3:1), [^18F]FB-vancomycin has an Rf of 0.66 (2 M NaOAc/MeOH 5:1). For [^18F]PQ-VE1-vancomycin, conditions described in [44] were used.
# [3] = Distribution coefficient LogD7.4, shake-flask n-octanol/PBS; type: physicochemical; details: shake-flask n-octanol/PBS pH 7.4, 500 µL each, 10 µL tracer in saline, vortexed 30 s, shaken 15 min, gamma counter, mean ± SD
# Experimental: The tracer distribution coefficient in n-octanol/PBS pH 7.4 (LogD7.4) was determined using a shake-flask methodology. To an Eppendorf tube containing 500 µL n-octanol and 500 µL PBS, 10 µL tracer solution in saline was added. The vial was vortexed for 30 s and placed on an Eppendorf shaker for 15 min. After incubation, layers were separated by centrifugation (1 min at 10.000 rpm) and a fraction of the n-octanol layer was pipetted off. To minimize contamination of the bottom layer with the n-octanol layer, the bottom PBS layer was collected by puncturing the bottom of the Eppendorf tube with a 22G needle and aspirating a fraction of the PBS layer. Collected fractions were weighted to correct for collected volume and subsequently measured on a calibrated gamma counter and corrected for decay. LogD7.4 was calculated as [drawing 1] .
# Gram-positive bacteria = experiment: Tracer binding to test panel of clinically relevant bacteria, Gram-positive; set-up: species or system C. acnes, E. faecalis, S. aureus, S. capitis, S. epidermidis; details: summary table
# Experimental: Clinical isolates of E. cloacae, S. capitis, S. aureus, as well as type strains of E. coli, E. faecalis, K. pneumoniae, P. aeruginosa and S. epidermidis were grown under aerobic conditions in brain heart infusion broth. A clinical isolate of the anaerobic bacterium C. acnes was grown on plate in an anaerobic chamber, and subsequently cultured in liquid medium with minimal headspace. Samples from fresh bacterial cultures were normalized to an OD600 of 1.0, fixed in PBS with 0.5% paraformaldehyde (PFA) for 10 min at room temperature, and resuspended in 1 mL sterile PBS. The fixated bacteria were incubated with tracer (133 kBq per mL, 42.8 pg and 0.6 pg of [^18F]BODIPY-FL-vancomycin and [^18F]PQ-VE1-vancomycin, respectively) and washed twice with sterile PBS. […] Measurements were corrected for background and decay. Results are reported as percentage of the total tracer added.
smiles,measurement,setting,value
CN[C@H](CC(C)C)C(=O)N[C@H]1C(=O)N[C@@H](CC(N)=O)C(=O)N[C@H]2C(=O)N[C@H]3C(=O)N[C@H](C(=O)N[C@H](C(=O)O)c4cc(O)cc(O)c4-c4cc3ccc4O)[C@H](O)c3ccc(c(Cl)c3)Oc3cc2cc(c3O[C@@H]2O[C@H](CO)[C@@H](O)[C@H](O)[C@H]2O[C@H]2C[C@](C)(NC(=O)c3ccc4c5c(c6ccccc6c4c3)OCC(OCCF)O5)[C@H](O)[C@H](C)O2)Oc2ccc(cc2Cl)[C@H]1O (stereo partly shown) [[^18F]PQ-VE1-vancomycin],Crossing of the blood-brain barrier (BBB),"[1]; healthy mice, intravenous injection",no substantial signal was observed in the brain
same,Accumulation,"[1]; healthy mice, summary table","Accumulation in spleen, liver and lungs"
same,Clearance,"[1]; healthy mice, summary table",Slow renal clearance
same,Muscle uptake,"[1]; healthy mice, summary table",Low muscle uptake
same,tissue uptake at 0.5 h,[1]; Bladder,3.12 %ID/g
same,tissue uptake at 1 h,[1]; Bladder,3.83 %ID/g
same,tissue uptake at 1.5 h,[1]; Bladder,3.73 %ID/g
same,tissue uptake at 0.5 h,[1]; Bone,1.14 %ID/g
same,tissue uptake at 1 h,[1]; Bone,1.34 %ID/g
same,tissue uptake at 1.5 h,[1]; Bone,0.75 %ID/g
same,tissue uptake at 0.5 h,[1]; Brain,0.14 %ID/g
same,tissue uptake at 1 h,[1]; Brain,0.14 %ID/g
same,tissue uptake at 1.5 h,[1]; Brain,0.17 %ID/g
same,tissue uptake at 0.5 h,[1]; Fat,0.81 %ID/g
same,tissue uptake at 1 h,[1]; Fat,0.79 %ID/g
same,tissue uptake at 1.5 h,[1]; Fat,0.55 %ID/g
same,tissue uptake at 0.5 h,[1]; Heart,3.54 %ID/g
same,tissue uptake at 1 h,[1]; Heart,2.6 %ID/g
same,tissue uptake at 1.5 h,[1]; Heart,1.82 %ID/g
same,tissue uptake at 0.5 h,[1]; Kidneys,3.37 %ID/g
same,tissue uptake at 1 h,[1]; Kidneys,2.73 %ID/g
same,tissue uptake at 1.5 h,[1]; Kidneys,2.04 %ID/g
same,tissue uptake at 0.5 h,[1]; Large intestine,2.28 %ID/g
same,tissue uptake at 1 h,[1]; Large intestine,1.81 %ID/g
same,tissue uptake at 1.5 h,[1]; Large intestine,1.98 %ID/g
same,tissue uptake at 0.5 h,[1]; Liver,10.5 %ID/g
same,tissue uptake at 1 h,[1]; Liver,9.33 %ID/g
same,tissue uptake at 1.5 h,[1]; Liver,7.72 %ID/g
same,tissue uptake at 0.5 h,[1]; Lungs,4.71 %ID/g
same,tissue uptake at 1 h,[1]; Lungs,3.8 %ID/g
same,tissue uptake at 1.5 h,[1]; Lungs,3.21 %ID/g
same,tissue uptake at 0.5 h,[1]; Muscle,0.86 %ID/g
same,tissue uptake at 1 h,[1]; Muscle,0.85 %ID/g
same,tissue uptake at 1.5 h,[1]; Muscle,0.6 %ID/g
same,tissue uptake at 0.5 h,[1]; Plasma,6.12 %ID/g
same,tissue uptake at 1 h,[1]; Plasma,4.47 %ID/g
same,tissue uptake at 1.5 h,[1]; Plasma,2.88 %ID/g
same,tissue uptake at 0.5 h,[1]; Small intestine,2.99 %ID/g
same,tissue uptake at 1 h,[1]; Small intestine,2.19 %ID/g
same,tissue uptake at 1.5 h,[1]; Small intestine,1.79 %ID/g
same,tissue uptake at 0.5 h,[1]; Spleen,7.89 %ID/g
same,tissue uptake at 1 h,[1]; Spleen,11.5 %ID/g
same,tissue uptake at 1.5 h,[1]; Spleen,8.39 %ID/g
same,tissue uptake at 0.5 h,[1]; Stomach,2.28 %ID/g
same,tissue uptake at 1 h,[1]; Stomach,2.45 %ID/g
same,tissue uptake at 1.5 h,[1]; Stomach,1.92 %ID/g
same,tissue uptake at 0.5 h,[1]; Whole blood,3.71 %ID/g
same,tissue uptake at 1 h,[1]; Whole blood,2.56 %ID/g
same,tissue uptake at 1.5 h,[1]; Whole blood,1.86 %ID/g
same,Stability,[2],Stable in vitro and in vivo up to 2 h.
same,LogD7.4,[3],-0.51 ± 0.07 (n = 9)
same,Binding to Gram-positive bacteria in vitro,Gram-positive bacteria,Binding to Gram-positive bacteria in vitro

# Source: paper PMC11224109, “Synthesis and preclinical evaluation of novel ^18F-vancomycin-based tracers for the detection of bacterial infections using positron emission tomography” (European Journal of Nuclear Medicine and Molecular Imaging, 2024)
